According to patent US10286050B2 (The United States of America, as represented by the …, priority 2013, dated 2019):
“Also recorded” adds a separate entry of the source.

Columns and labels:
[1] = Storage stability of vialed product; type: physicochemical
Protocol: Stability and Storage: KLH-HMW is stable for at least 12 months when stored at 2 to 8° C.
(§1) Stability and Storage: The finished injectable dosage forms are stored in the freezer (−70′C) for long-term storage. Intact vials are stable for at least 6 months when stored at controlled room temperature (15° C.-30° C.) or in the refrigerator (2° C.-8° C.), and for at least 36 months when stored in the freezer (−10° C. to −25° C. and −70° C.). The peptide vial contains no preservatives; once the peptide vial is entered, unused peptide solution is discarded after 3 hours.
as §1, with “(−70° C.)” for “(−70′C)”, “C.), at least 9 months when stored” for “C.) or”

[2] = target: HLA-A2 (Homo sapiens, UniProt P04439, D140Y/D185E/D98H/E176V/E277Q/G131W/G231S/I119V/I121R/I166T/I218V/L300P/L318F/N151K/N90K/P208A/P217A/Q86G/Q94H/R138H/R169H/T345S); details: cited from earlier work
[3] = test system: A2K^b transgenic mice (expressing human HLA-A*0201); details: cited from earlier work
[4] = test system: human T cells; details: cited from earlier work; for recognition of peptide-pulsed targets by peptide-specific human T cells: human T cells specific for the named peptide
[5] = controlled room temperature (15° C.-30° C.)
[6] = freezer (−10° C. to −25° C. and −70° C.)

## FVFLRNFSL [TARP 27-35]
[1]; [5]
  stability of intact vials: at least 6 months
[1]; [6]
  stability of intact vials: at least 36 months
[1]; refrigerator (2° C.-8° C.)
  stability of intact vials: at least 6 months
[2]; HLA-A2 epitopes, fold greater than TARP 29-37
  binding affinity relative to TARP 29-37: 10 times
[3]; A2K^b transgenic mice
  level of CD8+ T cell response: higher level of CD8+ T cell response than TARP29-37
[3]; dendritic cells pulsed with the peptides or DNA encoding the peptides
  immunogenicity in A2K^b transgenic mice: immunogenic
[4]
  recognition of peptide-pulsed targets by peptide-specific human T cells: recognized targets pulsed with that sequence

## FLRNFSLMV [TARP 29-37-9V]
[1]; [5]
  stability of intact vials: at least 6 months
[1]; [6]
  stability of intact vials: at least 36 months
[1]; refrigerator (2° C.-8° C.)
  stability of intact vials: at least 9 months
[2]; amino acid substitution versus wild-type peptide
  change of binding affinity to HLA-A2 by epitope enhancement: lower binding affinity to HLA-A2 than TARP29-37-3A; also recorded: did enhance the binding affinity compared with the wild-type peptide
[3]; A2K^b transgenic mice, versus wild type sequence
  percentage of TARP-specific CD8+ T cells: higher percentage of TARP-specific CD8^+ T cells than the wild type sequence
[4]
  recognition of peptide-pulsed targets by peptide-specific human T cells: recognized targets pulsed with all three peptides equally well
[4]; human cells
  immunogenicity in human T cells: immunogenic
